Experimental data taken from patent US20240010683A1, “Peptide Inhibitors of Human Mitochondrial Fission Protein 1 and Methods of Use” (The Medical College of Wisconsin, Inc., priority 2020, published 2024).
Where “and” joins values, the source holds several entries; their conditions need not be identical. Equal values may be shown once.

Molecular target: T1, recombinant human mitochondrial fission protein 1 (Fis1) (human), Q9Y3D6
T1 chain: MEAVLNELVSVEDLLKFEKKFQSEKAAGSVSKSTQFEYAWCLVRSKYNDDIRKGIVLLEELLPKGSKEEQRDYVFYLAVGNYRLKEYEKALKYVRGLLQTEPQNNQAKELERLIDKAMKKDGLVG

Question: SHKHDPLPYPHFLL (modifications not checked) [pep213] was tested. Which Kd did it give?
Answer: 7 µM and 3.3 µM
